PMC9897197 (Brain, 2022)

Assays:
Brain uptake = conditions: ISCP, 13.5-month-old female non-Tg vs 3xTg-AD mice; unpaired t-test
INSRβ = INSRβ (Mus musculus, UniProt P15208); assay: Phosphorylation of INSRβ; format: in vivo; conditions: 6-month-old C57Bl6 mice
Sequence of INSRβ (P15208 28-746 limits assumed): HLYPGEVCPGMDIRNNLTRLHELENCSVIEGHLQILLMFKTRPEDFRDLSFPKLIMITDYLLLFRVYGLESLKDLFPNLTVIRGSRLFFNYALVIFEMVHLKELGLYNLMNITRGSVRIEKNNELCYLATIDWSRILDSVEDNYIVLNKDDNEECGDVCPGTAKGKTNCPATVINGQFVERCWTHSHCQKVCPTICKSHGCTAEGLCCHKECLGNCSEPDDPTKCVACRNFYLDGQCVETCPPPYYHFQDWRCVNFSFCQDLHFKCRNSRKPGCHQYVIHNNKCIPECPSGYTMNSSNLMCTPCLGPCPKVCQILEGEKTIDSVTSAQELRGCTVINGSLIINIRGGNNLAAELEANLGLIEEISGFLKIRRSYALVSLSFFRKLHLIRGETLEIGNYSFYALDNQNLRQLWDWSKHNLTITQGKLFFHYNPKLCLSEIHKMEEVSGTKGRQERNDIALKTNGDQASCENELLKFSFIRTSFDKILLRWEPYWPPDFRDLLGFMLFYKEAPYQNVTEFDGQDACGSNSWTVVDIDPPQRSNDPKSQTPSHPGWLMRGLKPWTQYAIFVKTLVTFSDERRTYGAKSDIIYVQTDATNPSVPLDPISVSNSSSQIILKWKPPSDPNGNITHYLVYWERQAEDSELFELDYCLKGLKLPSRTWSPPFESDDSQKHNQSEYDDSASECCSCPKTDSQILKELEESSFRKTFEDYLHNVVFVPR
Sequence of INSRβ (P15208 753-1372 limits assumed): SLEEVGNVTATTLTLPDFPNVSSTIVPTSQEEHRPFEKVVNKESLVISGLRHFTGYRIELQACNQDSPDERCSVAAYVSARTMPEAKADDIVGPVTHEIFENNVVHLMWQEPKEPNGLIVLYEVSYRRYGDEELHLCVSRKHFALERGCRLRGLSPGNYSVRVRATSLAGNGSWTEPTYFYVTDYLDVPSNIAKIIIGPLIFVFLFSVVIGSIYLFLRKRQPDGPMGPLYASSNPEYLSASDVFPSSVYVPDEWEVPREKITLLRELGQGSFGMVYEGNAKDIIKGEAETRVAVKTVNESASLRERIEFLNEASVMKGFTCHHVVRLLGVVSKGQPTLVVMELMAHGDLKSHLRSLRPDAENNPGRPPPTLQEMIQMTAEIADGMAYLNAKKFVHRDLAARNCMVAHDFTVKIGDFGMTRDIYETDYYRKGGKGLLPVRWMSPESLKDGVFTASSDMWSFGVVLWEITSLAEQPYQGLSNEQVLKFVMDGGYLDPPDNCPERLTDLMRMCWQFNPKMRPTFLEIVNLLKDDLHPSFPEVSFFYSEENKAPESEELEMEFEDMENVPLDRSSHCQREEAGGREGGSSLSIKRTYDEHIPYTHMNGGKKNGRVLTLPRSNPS

Row | phosphorylation of INSRβ in microvessel-depleted parenchymal fraction (INSRβ; ISCP 120 s, insulin 350 nM, western blot) | time to INSRβ phosphorylation after intracarotid administration (INSRβ; insulin 0.4 mg/kg or 350 nM, ISCP) [s] | Substance | impact of 3xTg-AD transgenes on 125I-insulin transport (Brain uptake)
1 |  |  | 125I-insulin: radiolabelled insulin used for transport quantification | no significant impact
2 | no trace was detected | ≤ 120 | insulin | 
